Test results: PMC2132719

Target: NLS-HSA (SV-40 large T antigen NLS peptide coupled to human serum albumin) (human | SV-40) (UniProt P02768)
Experiment: pull-down

Xenopus Nup62 (natural protein)
percent of the protein in the extract bound: < 1%
